Test results taken from US5910570A, “Cloned DNA encoding a UDP-GalNAc: polypeptide N-acetylgalactosaminy-ltransferase” (Pharmacia & Upjohn Company, priority 1997, dated 1999).
Values joined by “and” are separate entries in the source; they are usually repeats but may differ in a detail not shown here. Identical values can stand only once.

Tests used:
[1] = test system: GalNAc-transferase purified from porcine submaxillary glands; details: Wang et al., 1992; read-out: Km for UDP-GalNAc; cited from earlier work
[2] = biological target: T1, cloned soluble GalNAc-transferase (GalNAcTs) (Bos taurus, UniProt Q07537); test: Kinetic parameters with the cloned soluble GalNAc-transferase (Bond Elut assay); format: biochemical, bovine; details: read-out: Km for UDP-GalNAc
T1 construct: The plasmid pAC373-GalNAcT (Homa et al., 1993) which contains the full length GalNAc-transferase gene; honeybee melittin signal peptide (21 aa) (N, cleaved yes); made in house; host or cells: Sf9 cells / baculovirus, purified from serum-free culture medium on apomucin-Sepharose
T1 sequence (Q07537 48-559 limits assumed): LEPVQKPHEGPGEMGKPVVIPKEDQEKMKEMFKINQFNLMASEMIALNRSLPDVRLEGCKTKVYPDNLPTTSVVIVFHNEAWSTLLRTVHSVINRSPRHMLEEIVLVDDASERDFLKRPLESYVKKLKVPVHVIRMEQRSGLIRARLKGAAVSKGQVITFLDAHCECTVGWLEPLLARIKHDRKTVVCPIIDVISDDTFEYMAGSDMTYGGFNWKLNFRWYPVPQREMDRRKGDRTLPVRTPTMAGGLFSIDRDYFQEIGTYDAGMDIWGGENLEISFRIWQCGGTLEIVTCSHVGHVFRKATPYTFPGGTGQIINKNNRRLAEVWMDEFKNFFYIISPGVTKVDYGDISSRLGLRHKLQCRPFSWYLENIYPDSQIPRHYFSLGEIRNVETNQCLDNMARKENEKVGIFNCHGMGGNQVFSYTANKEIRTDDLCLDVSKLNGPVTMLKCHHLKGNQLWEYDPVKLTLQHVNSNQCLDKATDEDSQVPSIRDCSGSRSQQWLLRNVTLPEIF

[3] = biological target: T2, bovine colostrum GalNAc-transferase (Bos taurus, UniProt Q07537); set-up: host or cells: bovine colostrum; details: Elhammer and Kornfeld, 1986; read-out: Km for UDP-GalNAc; cited from earlier work
T2 sequence (Q07537 41-559 limits assumed): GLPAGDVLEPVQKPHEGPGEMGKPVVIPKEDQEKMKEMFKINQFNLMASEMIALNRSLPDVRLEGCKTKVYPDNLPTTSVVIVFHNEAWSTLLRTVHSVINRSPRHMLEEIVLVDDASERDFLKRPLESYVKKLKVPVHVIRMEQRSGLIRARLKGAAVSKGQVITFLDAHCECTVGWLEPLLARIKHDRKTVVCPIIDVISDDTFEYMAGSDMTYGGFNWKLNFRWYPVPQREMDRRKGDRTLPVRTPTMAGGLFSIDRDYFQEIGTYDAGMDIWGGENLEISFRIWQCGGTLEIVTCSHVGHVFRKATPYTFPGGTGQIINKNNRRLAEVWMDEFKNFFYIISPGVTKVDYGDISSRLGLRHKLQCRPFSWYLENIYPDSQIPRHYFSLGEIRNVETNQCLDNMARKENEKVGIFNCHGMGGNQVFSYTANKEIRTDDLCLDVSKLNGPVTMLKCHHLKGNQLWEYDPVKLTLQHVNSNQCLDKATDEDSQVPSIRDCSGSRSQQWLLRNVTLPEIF

[4] = biological target: T2, bovine colostrum GalNAc-transferase; test: Transfer of N-acetylgalactosamine to protein acceptors; format: biochemical; set-up: from tissue; host or cells: bovine colostrum; details: for acceptor activity (in words): native or reduced and carboxymethylated state
Experimental: The above conclusions and the predictions of the specificity algorithm are validated experimentally by studying the ability of bovine colostrum GalNAc-transferase to transfer N-acetylgalactosamine to a variety of acceptors, both native proteins and synthetic acceptor peptides. The transfer of N-acetylgalactosamine to protein acceptors is assayed as described by Elhammer and Kornfeld, 1986, with minor modifications. The concentration of UDP-GalNAc is saturating in all assays; a Km of 8 μM is reported for bovine colostrum GalNAc-transferase (Elhammer and Kornfeld, 1986).
The transfer of N-acetylgalactosamine to protein acceptors was assayed
under standard conditions (see Material and Methods). The acceptor
concentration was 65 μM, the enzyme concentration approximately 65
mU/ml and assay time was 60 minutes. The transfer to both native and
reduced-carboxymethylated acceptors was assayed.

In the case of CC(=O)N[C@H]1[C@@H](OP(=O)(O)OP(=O)(O)OC[C@H]2O[C@@H](n3ccc(=O)[nH]c3=O)[C@H](O)[C@@H]2O)O[C@H](CO)[C@H](O)[C@@H]1O [UDP-GalNAc, UDP-N-acetylgalactosamine], the Km [1] is given as 6 µM, the Km [2] is given as ~1.7 µM and 1.7 µM and the Km [3] is given as 8 µM.
With “Bovine cytochrome C: protein with one Ser and eight Thr residues but no predicted potential sites” the “Product formed, Native” value ([4]; native acceptor 65 μM, enzyme approx. 65 mU/ml, 60 minutes) was < 0.1 nmol/min/mg, the “acceptor activity (in words)” value ([4]; listed as bovine cytochrome C) was “not an acceptor” and the “acceptor activity (in words)” value ([4]; listed as cytochrome C) was “completely inactive as an acceptor”. For the same compound, the “Product formed, Reduced and carboxymethylated” value ([4]; reduced and carboxymethylated acceptor 65 μM, enzyme approx. 65 mU/ml, 60 minutes) was < 0.1 nmol/min/mg.
